Test results as given in paper doi:10.1101/2023.05.06.539669 (bioRxiv, 2023).
Several values for one entry are separate records, joined by “and”; a condition that tells them apart may be missing. Equal values may be shown once. Where no end group is shown, it is not given here.

Biological target: bacterially expressed wild-type HRAS (human, UniProt P01112 1-189)
Test: ITC

Sequence of bacterially expressed wild-type HRAS (P01112 whole entry): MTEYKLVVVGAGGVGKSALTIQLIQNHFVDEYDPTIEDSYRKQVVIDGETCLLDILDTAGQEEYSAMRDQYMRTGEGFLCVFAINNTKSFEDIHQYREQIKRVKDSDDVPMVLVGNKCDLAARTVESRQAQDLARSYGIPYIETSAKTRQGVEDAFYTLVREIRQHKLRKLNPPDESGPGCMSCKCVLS

In the case of YRLEKQSEPNV-NH2 [S-016-1034 (CDRI-S-016-1034), 11-mer peptide derived from the RAS-Binding-Domain of mSIN1], the Kd is reported as 9.54 µM and 8.95 µM.
